# Laboratory results taken from patent publication US20040002450A1, “Y17 - isolated molecules comprising epitopes containing sulfated moieties, antibodies to such epitopes, and uses thereof” (priority 2000, published 2004).
# Assays:
# [1] = tested on: platelet GPIbα; assay: Western blot/FACS of endoprotease-cleaved platelet GPIbα and glycocalicin; format: binding, human; conditions: immunoblots and FACS
# Description: (§1) Immunoblotting and endoprotease cleavage techniques were used to identify the epitope for Y1 on the surface membrane of platelets.
# (§2) The enzyme O-Sialoglycoprotein endoprotease from Pasteurella haemolytica (Cedarlan CLE 100) selectively cleaves human platelet GPIb and specifically cleaves only proteins containing sialylated, O-linked glycans. […] This enzyme has been reported to cleave GPIb, which is heavily O-glycosylated, but not GPIIb-IIIa or other receptors on platelets. GPIbα was digested with O-Sialoglycoprotein endoprotease in order to further establish the binding of Y1 to the molecule.
# (§3) Mocarhagin [Sigma L4515a] is a cobra venom metalloproteinase that cleaves platelet GPIbα specifically at a single site between residues glu-282 and asp-283, thereby generating two stable products: a ˜45-kDa N-terminal fragment (His1-Glu282), which is released into the supernatant, and a membrane-bound ˜95 kDa C-terminal fragment.
# (§4) Cathepsin G (Sigma C4428), a neutrophil serine protease, cleaves glycocalicin at a first cleavage site between residues Leu-275 and Tyr-276 and at a second cleavage site between residues Val-296 and Lys-297. Cathepsin G treatment of glycocalicin generates two N-terminal fragments: a small N-terminal 42 kDa fragment (His1-Leu275), a large N-terminal 45 kDa N-terminal fragment (His1-Val-296), and corresponding ˜95 kDa C-terminal fragments. (FIG. 1).
# (§5) For mocarhagin digestion, 10^8 washed platelets in TS buffer (0.01 M Tris, 0.15 M sodium chloride, pH 7.4) containing 1 mM calcium chloride were treated with 12 μg/ml mocarhagin (final concentration) for 1 hour at 22° C. and digestion was stopped by adding EDTA to 0.01 M.
# (§6) 10^6 platelets in 0.1 M Tris buffer pH 7.4 containing 0.2% albumin and protease inhibitors (10 μM leupeptin, 0.24 mM PMSF) was incubated with 0.14 mg/ml O-Sialoglycoprotein endoprotease (final concentration) for 45 min at 37° C. and digestion was stopped by adding sample buffer and boiling. The sample buffer used contained 3% SDS, 12% glycerol, 50 mM Tris HCl, 2% β-mercaptoethanol, and 0.03% bromphenol blue.
# (§7) For mocarhagin digestion, glycocalicin in TS buffer containing 1 mM calcium chloride was incubated with 10 μg/ml mocarhagin (final concentration) for 1 hour at 22° C. and digestion was stopped by adding EDTA to 0.01 M.
# (§8) For cathepsin G digestion, glycocalicin in TS buffer containing 1 mM calcium chloride was incubated with 3.4 μg/ml cathepsin G (final concentration) for 4 hour at 22° C. and digestion was stopped by adding PMSF to 1 mM.
# [2] = molecular target: T1, platelet GPIbα (Homo sapiens, UniProt P07359); assay: as above; format: binding
# T1 construct: endogenous in cells; host or cells: washed human platelets (blood-bank platelet concentrate)
# Description: as §1, §2, §3, §4, §5, §6, §7, §8
# [3] = tested on: KG-1 cells; assay: FACS and binding competition on KG-1 cells (Y1 forms and multimers); set-up: species or system human; conditions: 5 μg and 10 μg
# Description: To compare the binding of the scFv monomer (also referred to as CONY1) with the Y1 dimer, binding competition experiments were done in vitro on KG-1 cells. In addition, these experiments also compared the binding of the full Y1 IgG to the scFv Y1 monomers. To perform this study, a Y1 IgG was labeled with biotin.
# In a preferred method, tetramers are formed via a biotin/streptavidin association. A novel fermentation construct that is capable of being enzymatically labeled with biotin (referred to herein as Y1-biotag or Y1-B) was created. A sequence that is a substrate for the BirA enzyme was added at the Y1C-terminus. The BirA enzyme adds a biotin to the lysine residue within the sequence. Y1-biotag was expressed in E. coli. The inclusion body material was isolated and refolded. The purity of the folded protein was >95%, and >100 mg were obtained from a 1-L culture (small-scale, non-optimized conditions). […] Nevertheless, this construct offered the advantage of specific biotinylation in which the binding site of the molecule remains intact. Further, each molecule is labeled by only one biotin—each molecule receives one biotin on the carboxyl end.
# Limiting labeling to one biotin/molecule in a desired location enabled production of tetramers with streptavidin. The tetramers were formed by incubating Y1-B with steptavidin-PE. […]
# [4] = molecular target: T2, glycocalicin (Homo sapiens, UniProt P07359); assay: Western blot on natural versus E. coli recombinant glycocalicin; format: binding
# T2 construct: GC, amino acid 1 to amino acid 493 of GPIbα; made in house; host or cells: E. coli BL21 (DE3), total cell lysate
# Method: The DNA fragment encoding for glycocalicin (GC, amino acid 1 to amino acid 493 of GPIbα) was cloned into an IPTG inducible prokaryotic vector cassette. E. coli (BL21 DE3) cells harboring the newly constructed plasmid were grown at 37° C. to O.D. 0.7-0.8, than at 37° C. for 3 hours for in the presence of IPTG for induction
# SDS-polyacrylamide gel loaded either with semi-purified human platelet derived glycocalicin (“GC”) or with E. coli cell lysates (“total”) derived from induced and non-induced cells were analyzed. Western blot analysis was performed with biotinylated Y1-scFv, polyclonal rabbit anti-human glycocalicin antibody, commercially available mouse anti-human CD42 monoclonal antibody (SZ2 Immunotech, PM640 Serotec, HIP 1 Pharmigen, AN51 DAKO), and polyclonal antibody against the N-terminus of GPIbα (Sc-7071, Santa Cruz).
molecule,measurement,setting,value
"Y1 scFv: fully human scFv clone binding platelets and myelogenous leukemia cells; SEQ ID NO: 25, heavy chain CDR3 SEQ ID NO: 8 (protein, listed as Homo sapiens) scFv: MKYLLPTAAAGLLLLAAQPAMAEVQLVESGGGVVRPGGSLRLSCAASGFTFDDYGMSWVRQAPGKGLEWVSGINWNGGSTGYADSVKGRFTISRDNAKNSLYLQMNSLRAEDTAVYYCARMRAPVIWGQGTLVTVSRGGGGSGGGGSGGGGSSELTQDPAVSVALGQTVRITCQGDSLRSYYASWYQQKPGQAPVLVIYGKNNRPSGIPDRFSGSSSGNTASLTITGAQAEDEADYYCNSRDSSGNHVVFGGGTKLTVLGAAAEQKLISEEDLNGAA",binding to washed platelets after O-Sialoglycoprotein endoprotease,[1],abolishes binding
same,binding to cathepsin G fragments of glycocalicin,[2]; Western blot,"bound to the larger N-terminal fragment (His 1-Val-296), but not to the smaller N-terminal fragment (His1-Leu275)"
same,binding after mocarhagin treatment of washed platelets,[2]; Western blot of platelet lysates,binding of Y1 to the N-terminal ˜45 kDa tryptic fragment
same,competition with Y1 IgG-Biotin (50 ng),[3],partially competed
same,recognition of natural human platelet derived and bacterial recombinant glycocalicin,[4],"recognized the natural human-derived glycocalicin, but did not recognize the bacterial derived recombinant platelet glycocalicin"
